Measured values from patent publication US20180223285.
pIC50, pKd: −log10 of the molar value.

Experiments:
human C5a (Homo sapiens) = target: T1, human C5a (Homo sapiens) (UniProt P01031); assay: SPR; details: L-RNA
T1 sequence: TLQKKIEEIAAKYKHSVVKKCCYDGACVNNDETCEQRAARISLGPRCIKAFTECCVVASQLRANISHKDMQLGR

[1] = target: T2, human desArg-C5a (Homo sapiens) (UniProt P01031); assay: SPR; details: L-RNA, 5' 40 kDa PEG, Biacore, HBS-EP, 37 C
T2 sequence: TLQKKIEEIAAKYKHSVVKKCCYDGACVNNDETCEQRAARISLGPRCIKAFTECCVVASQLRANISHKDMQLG

mouse C5a (Mus musculus) = target: T3, mouse C5a (Mus musculus) (UniProt P06684); assay: SPR; details: L-RNA, Biacore, HBS-EP, 37 C
T3 sequence: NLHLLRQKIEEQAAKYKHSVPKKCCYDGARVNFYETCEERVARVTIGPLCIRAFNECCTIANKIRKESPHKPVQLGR

[2] = target: T4, mouse desArg-C5a (Mus musculus) (UniProt P06684); assay: SPR; details: L-RNA; L-2'-deoxy dU7,dU28,dC38; 5' 40 kDa PEG; Biacore, HBS-EP, 37 C
T4 sequence: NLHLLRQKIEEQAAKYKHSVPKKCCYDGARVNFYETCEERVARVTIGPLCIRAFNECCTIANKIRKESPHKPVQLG

human C5 (Homo sapiens) = human C5 (Homo sapiens) (UniProt P01031); assay: cell_activity; details: maximal 2'-OMe purine and 2'-F pyrimidine substitution; complement-dependent sheep erythrocyte hemolysis in human serum; positive control
[3] = L-2'-deoxy dU5,dG12,dA13,dU26,dU28,dC36, terminal stretch truncated to one nucleotide, reduced activity, exact value in figure

How did the pKd (human C5a (Homo sapiens); [3]) turn out when “GAUGUGGUGGUGAAGGGUUGUUGGGUGUCGACGCACGC [NOX-D19001-6xDNA-029]” was run?
Its pKd is > 8.00.

“GCGAUGUGGUGGUGAAGGGUUGUUGGGUGUCGACGCACGC [NOX-D19001-3xDNA-020]” was tested. Which pKd (human C5a (Homo sapiens); L-2'-deoxy dU7,dU28,dU30, stated as improved by more than factor 10 vs 11.3 nM of NOX-D19001-020, exact value in figure) did it give?
Its pKd is > 8.95.

“GAUGUGGUGGUGAAGGGUUGUUGGGUGUCGACGCACAGC [NOX-D19001-6xDNA-024]” was tested. Which pKd (human C5a (Homo sapiens); [3]) did it give?
The pKd was > 8.00.

How did the pKd (human C5a (Homo sapiens); Biacore, HBS-EP, 37 C) turn out when “GCGAUGUGGUGGUGAAGGGUUGUUGGGUGUCGACGCACGC [NOX-D19001-020]” was run?
Its pKd is 7.95.

“GCCUGAUGUGGUGGUGAAGGGUUGUUGGGUGUCGACGCACAGGC [NOX-D19001-D09]” was tested. Which pKd (human C5a (Homo sapiens); L-2'-deoxy dU9, Biacore, HBS-EP, 37 C) did it give?
The pKd was 9.15.

With “GCGAUGUGGUGGUGAAGGGUUGUUGGGUGUCGACGCACGC [NOX-D19001-2xDNA-020]” as the substance, how does the pKd (human C5a (Homo sapiens); L-2'-deoxy dU7,dU28, stated as improved by more than factor 10 vs 11.3 nM of NOX-D19001-020, exact value in figure) read?
Its pKd is > 8.95.

With “GCCUGAUGUGGUGGUGAAGGGUUGUUGGGUGUCGACGCACAGGC [NOX-D19001-6xDNA (D09-16-17-30-32-40)]” as the substance, how does the pKd (human C5a (Homo sapiens); L-2'-deoxy dU9,dG16,dA17,dU30,dU32,dC40, Biacore, HBS-EP, 37 C) read?
The pKd was 9.44.

Which results are given for “GCGAUGUGGUGGUGAAGGGUUGUUGGGUGUCGACGCACGC [NOX-D21 (NOX-D19001-2dU-1dC-020-5'40kDa-PEG)]”?
pKd (human C5a (Homo sapiens); L-2'-deoxy dU7,dU28,dC38, 5' 40 kDa PEG, Biacore, HBS-EP, 37 C): 9.09; pKd ([1]; L-2'-deoxy dU7,dU28,dC38): 9.07; pKd (mouse C5a (Mus musculus); L-2'-deoxy dU7,dU28,dC38, 5' 40 kDa PEG): 10.54; pKd [2]: 10.55

C5C6 aptamer (Biesecker et al. 1999) was tested. Which pIC50 (human C5 (Homo sapiens)) did it give?
Its pIC50 is 6.00.

“GAUGUGGUGGUGAAGGGUUGUUGGGUGUCGACGCACAGGC [NOX-D19001-6xDNA-010]” was tested. Which pKd (human C5a (Homo sapiens); [3]) did it give?
The pKd was > 8.00.

With “GCGAUGUGGUGGUGAAGGGUUGUUGGGUGUCGACGCACGC [NOX-D20001 (NOX-D19001-6xDNA-020)]” as the substance, how does the pKd (human C5a (Homo sapiens); L-2'-deoxy dU7,dG14,dA15,dU28,dU30,dC38, Biacore, HBS-EP, 37 C) read?
The pKd was 9.52.

With “GCGAUGUGGUGGUGAAGGGUUGUUGGGUGUCGACGCACGC [NOX-D20 (NOX-D19001-6xDNA-020-5'40kDa-PEG)]” as the substance, how does the pKd (human C5a (Homo sapiens); L-2'-deoxy dU7,dG14,dA15,dU28,dU30,dC38, 5' 40 kDa PEG, Biacore, HBS-EP, 37 C) read?
The pKd was 9.52.

What about the pKd ([1]; L-2'-deoxy dU7,dG14,dA15,dU28,dU30,dC38) of the same substance?
The pKd was 9.50.

What about the pKd (mouse C5a (Mus musculus); L-2'-deoxy dU7,dG14,dA15,dU28,dU30,dC38, 5' 40 kDa PEG) of the same substance?
Its pKd is 10.72.

How did the pKd (human C5a (Homo sapiens); L-2'-deoxy dU7,dU28,dU30,dC38, stated as improved by more than factor 10 vs 11.3 nM of NOX-D19001-020, exact value in figure) turn out when “GCGAUGUGGUGGUGAAGGGUUGUUGGGUGUCGACGCACGC [NOX-D19001-3dU-1dC-020]” was run?
The pKd was > 8.95.

“GCGAUGUGGUGGUGAAGGGUUGUUGGGUGUCGACGCAC [NOX-D19001-6xDNA-032]” was tested. Which pKd (human C5a (Homo sapiens); L-2'-deoxy dU7,dG14,dA15,dU28,dU30,dC38, terminal stretch truncated to one nucleotide, reduced activity, exact value in figure) did it give?
The pKd was > 8.00.

With “GCCUGAUGUGGUGGUGAAGGGUUGUUGGGUGUCGACGCACAGGC [NOX-D19001 (274-C8-002-G14)]” as the substance, how does the pKd (human C5a (Homo sapiens); Biacore, HBS-EP, 37 C) read?
Its pKd is 8.86.

What about the pKd (mouse C5a (Mus musculus)) of the same substance?
The pKd was 9.52.

“GCGAUGUGGUGGUGAAGGGUUGUUGGGUGUCGACGCACGC [NOX-D21001 (NOX-D19001-2dU-1dC-020)]” was tested. Which pKd (human C5a (Homo sapiens); L-2'-deoxy dU7,dU28,dC38, stated as improved by more than factor 10 vs 11.3 nM of NOX-D19001-020, exact value in figure) did it give?
The pKd was > 8.95.
